Reference: patent CN101627111A

Target: Fcγ受体(FcγR)
Assay: cell-based or functional assay

T cell activation in vivo (markers on splenocytes of dosed Balb/c mice, flow cytometry): 4 倍
Substance: 2C11 huG1, HEK (145-2C11 variable regions on human IgG1/kappa, expressed in HEK 293E cells) (from UniProt P01857 1-330) (antibody)
